Reference: paper PMC3848460

Experiments:
[1] = target: T1, SYP41 (Arabidopsis thaliana) (UniProt O65359)
T1 sequence: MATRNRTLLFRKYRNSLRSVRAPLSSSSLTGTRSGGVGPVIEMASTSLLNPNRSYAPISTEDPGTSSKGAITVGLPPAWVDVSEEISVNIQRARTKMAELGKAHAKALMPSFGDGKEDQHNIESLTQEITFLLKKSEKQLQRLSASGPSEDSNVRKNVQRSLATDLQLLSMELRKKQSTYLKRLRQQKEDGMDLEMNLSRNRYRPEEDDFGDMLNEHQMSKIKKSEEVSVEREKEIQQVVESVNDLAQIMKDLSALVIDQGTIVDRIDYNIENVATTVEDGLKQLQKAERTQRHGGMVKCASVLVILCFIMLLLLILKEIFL

[2] = target: T2, SYP42 (Arabidopsis thaliana) (UniProt Q9SWH4)
T2 sequence: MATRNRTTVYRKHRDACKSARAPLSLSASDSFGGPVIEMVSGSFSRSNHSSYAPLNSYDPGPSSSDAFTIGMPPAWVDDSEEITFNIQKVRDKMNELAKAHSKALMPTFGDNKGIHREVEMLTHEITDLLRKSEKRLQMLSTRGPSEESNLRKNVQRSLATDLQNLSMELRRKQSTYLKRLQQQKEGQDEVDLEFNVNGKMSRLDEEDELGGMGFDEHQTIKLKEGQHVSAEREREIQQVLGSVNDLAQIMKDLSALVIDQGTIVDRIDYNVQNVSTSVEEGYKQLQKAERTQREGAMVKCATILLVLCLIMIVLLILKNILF

[3] = target: T3, SYP43 (Arabidopsis thaliana) (UniProt Q9SUJ1)
T3 sequence: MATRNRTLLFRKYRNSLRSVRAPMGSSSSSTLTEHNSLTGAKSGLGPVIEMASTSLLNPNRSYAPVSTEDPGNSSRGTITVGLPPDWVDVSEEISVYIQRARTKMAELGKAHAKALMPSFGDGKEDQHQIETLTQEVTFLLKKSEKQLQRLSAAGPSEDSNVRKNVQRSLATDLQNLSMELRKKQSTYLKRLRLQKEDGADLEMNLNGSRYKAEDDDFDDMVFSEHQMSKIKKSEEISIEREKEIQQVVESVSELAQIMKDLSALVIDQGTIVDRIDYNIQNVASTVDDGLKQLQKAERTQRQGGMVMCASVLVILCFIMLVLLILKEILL

soluble fragment of VTI12 (domain or fragment)
< 4%: NBD fluorescence increase (lipid mixing) of SYP41 acceptor vesicles with R-VTI11 donor vesicles after 30 min preincubation with YKT62 and VTI12s; pair blocked: m1 + m4 [1] | NBD fluorescence increase (lipid mixing) of SYP41 acceptor vesicles with R-VTI12 donor vesicles after 30 min preincubation with YKT62 and VTI12s; pair blocked: m1 + m5 [1] | NBD fluorescence increase (lipid mixing) of SYP42 acceptor vesicles with R-VTI11 donor vesicles after 30 min preincubation with YKT62 and VTI12s; pair blocked: m2 + m4 [2] | NBD fluorescence increase (lipid mixing) of SYP42 acceptor vesicles with R-VTI12 donor vesicles after 30 min preincubation with YKT62 and VTI12s; pair blocked: m2 + m5 [2] | NBD fluorescence increase (lipid mixing) of SYP43 acceptor vesicles with R-VTI11 donor vesicles after 30 min preincubation with YKT62 and VTI12s; pair blocked: m3 + m4 [3] | NBD fluorescence increase (lipid mixing) of SYP43 acceptor vesicles with R-VTI12 donor vesicles after 30 min preincubation with YKT62 and VTI12s; pair blocked: m3 + m5 [3]

B1: soluble fragment of VTI11 (domain or fragment)
chain: MSDVFDGYERQYCELSASLSKKCSSAISLDGEQKKQKLSEIKSGLENAEVLIRKMDLEARTLPPNLKSSLLVKLREFKSDLNNFKTEVKRITSGQLNAAARDELLEAGMADTKTASADQRARLMMSTERLGRTTDRVKDSRRTMMETEEIGVSILQDLHGQRQSLLRAHETLHGVDDNIGKSKKILTDMTRRMNKNKWTI
< 4%: NBD fluorescence increase (lipid mixing) of SYP41 acceptor vesicles with R-VTI11 donor vesicles after 30 min preincubation with YKT62 and VTI11s; pair blocked: m1 + m4 [1] | NBD fluorescence increase (lipid mixing) of SYP41 acceptor vesicles with R-VTI12 donor vesicles after 30 min preincubation with YKT62 and VTI11s; pair blocked: m1 + m5 [1] | NBD fluorescence increase (lipid mixing) of SYP42 acceptor vesicles with R-VTI11 donor vesicles after 30 min preincubation with YKT62 and VTI11s; pair blocked: m2 + m4 [2] | NBD fluorescence increase (lipid mixing) of SYP42 acceptor vesicles with R-VTI12 donor vesicles after 30 min preincubation with YKT62 and VTI11s; pair blocked: m2 + m5 [2] | NBD fluorescence increase (lipid mixing) of SYP43 acceptor vesicles with R-VTI11 donor vesicles after 30 min preincubation with YKT62 and VTI11s; pair blocked: m3 + m4 [3] | NBD fluorescence increase (lipid mixing) of SYP43 acceptor vesicles with R-VTI12 donor vesicles after 30 min preincubation with YKT62 and VTI11s; pair blocked: m3 + m5 [3]
